The target in assay [1] is T1, C. reinhardtii Rubisco small subunit 1 (S1Cr), mature (Chlamydomonas reinhardtii, UniProt P00873 46-185).
T1 construct: also called RbcS1; Cre02.g120100.t1.2
The assay is described as follows: yeast two-hybrid (FIG. 4J). The method, then: (§1) Competent yeast cells (Y2H Gold, Clontech) were prepared from a 50 ml culture grown in YPDA medium supplemented with kanamycin (50 μg ml⁻¹). Cells were washed with ddH2O and a lithium acetate/TE solution (100 mM LiAc, 10 mM Tris-HCl [pH 7.5], 1 mM EDTA) before re-suspending in lithium acetate/TE solution. Cells were then co-transformed with binding and activation domain vectors by mixing 50 μl of competent cells with 1 μg of each plasmid vector and a PEG solution (100 mM LiAc, 10 mM Tris-HCl [pH 7.5], 1 mM EDTA, 40% [v/v] PEG 4000). Cells were incubated at 30° C. for 30 min, then subjected to a heat shock of 42° C. for 20 min. The cells were centrifuged, re-suspended in 500 μl YPDA and incubated at 30° C. for ca 90 min, then centrifuged and washed in TE (10 mM Tris-HCl [pH 7.5], 1 mM EDTA). The pellet was re-suspended in 200 μl TE, spread onto SD-L-W (standard dextrose medium (minimal yeast medium) lacking leucine and tryptophan, Anachem) and grown for 3 days at 30° C. Ten to fifteen of the resulting colonies were pooled per co-transformation and grown in a single culture for 24 hrs. The following day 1 ml of culture was harvested, cell density (OD₆₀₀) measured, centrifuged and then diluted in TE to give a final OD₆₀₀ of 0.5 or 0.1.
(§2) Yeast cultures were then plated onto SD-L-W (yeast synthetic minimal media lacking leucine (L) and tryptophan (W)) and SD-L-W-H (yeast synthetic minimal media lacking L, W, and histidine(H)) (Anachem). Yeast expressing both binding and activation domain constructs was grown on SD-L-W to confirm presence of both plasmids. To assess interaction strength, yeast was plated onto SD-L-W-H with differing concentrations of the HIS3 inhibitor 3-aminotriazole (3-AT). These plates were then incubated for 3 days before assessing for presence or absence of growth, to perform a semi-quantitative yeast two-hybrid assay as in van Nues and Beggs (van Nues and Beggs, Genetics (2000) 157: 1451-1467). The same yeast transformation was used for each interaction study. Different colonies on the same yeast transformation plate were considered independent biological replicates (as for E. coli). Two biological replicates (top and bottom row for each interaction) were spotted from different liquid culture concentrations (0.5 and 0.1 OD). Each interaction experiment was performed at least twice.

The target in assay [2] is 1AAt::YFP^N (A. thaliana SSU 1A fused at the C-terminus to YFP^N) (Arabidopsis thaliana, UniProt P10795 56-180). The assay is described as follows: BiFC in N. benthamiana; a YFP signal was seen and is put down to self-assembly of the split YFP halves. The method, then:
(§3) Bimolecular fluorescence complementation analysis (BiFC) was carried out to provide additional information about the EPYC1-Rubisco interaction in vivo. Three Rubisco SSUs (1AAt, S2Cr and 1AAtMOD) and EPYC1, each fused at the C-terminus to either YFP^N or YFP^C were transiently co-expressed in N. benthamiana (Walter, et al., Plant J. (2004) 40: 428-438).

Assay [3] addresses T2, 1AAt::YFP^C (A. thaliana SSU 1A fused at the C-terminus to YFP^C) (Arabidopsis thaliana, UniProt P10795 56-180). The description is as above. The protocol: as §3
Assay [4] addresses T1, C. reinhardtii Rubisco small subunit 1 …. The assay can be described thus: yeast two-hybrid (FIG. 5E). The protocol:
as §1, §2

Assay [5] concerns the target T3, 1AAtMOD (α-helices): A. thaliana SSU 1A with its two α-helices replaced with C. reinhardtii α-helices (Arabidopsis thaliana with parts of …).
T3 construct: also called pGADT7_1AAtMOD(α-helices); hybrid 1A SSU
The assay can be described thus: yeast two-hybrid (FIG. 5E). The protocol: as §1, §2

In assay [6] the target is T2, 1AAt::YFP^C (A. thaliana SSU 1A fused …). The assay can be described thus: BiFC in N. benthamiana. The protocol: as §3

This is an account of results in patent US20220282268A1 (UNIVERSITY COURT OF THE UNIVERSITY OF EDINBURGH, published 2022).

Substitutions are numbered along the chain they refer to.

B1: EPYC1 N-terminus and all four repeat regions (N-ter+4reps) (other)
chain: MATISSMRVGAASRVVVSGRVKTVKVAARGSWRESSTATVQASRASSATNRVSPTRSVLPANWRQELESLRNGNGSSSAASSAPAPARSSSASWRDAAPASSAPARSSSASKKAVTPSRSALPSNWKQELESLRSSSPAPASSAPAPARSSSASWRDAAPASSAPARSSSSKKAVTPSRSALPSNWKQELESLRSSSPAPASSAPAPARSSSASWRDAAPASSAPARSSSASKKAVTPSRSALPSNWKQELESLRSNSPAPASSAPAPARSSSASWRDAPASSSSSSADKA
notes: also called pGBKT7_N-ter + 4reps EPYC1
For B1, the binding result in assay [1] is recorded as “binds”.

B2: EPYC1::YFP^C (EPYC1 fused at the C-terminus to YFP^C, with 1AAt transit peptide) (other)
chain: MATISSMRVGAASRVVVSGRVKTVKVAARGSWRESSTATVQASRASSATNRVSPTRSVLPANWRQELESLRNGNGSSSAASSAPAPARSSSASWRDAAPASSAPARSSSASKKAVTPSRSALPSNWKQELESLRSSSPAPASSAPAPARSSSASWRDAAPASSAPARSSSSKKAVTPSRSALPSNWKQELESLRSSSPAPASSAPAPARSSSASWRDAAPASSAPARSSSASKKAVTPSRSALPSNWKQELESLRSNSPAPASSAPAPARSSSASWRDAPASSSSSSADKAGTNPWTGKSKPEIKRTALPADWRKGL
notes: Expressed transiently in N. benthamiana with the 1AAt transit peptide at the N-terminus; processing in the plant not determined; also called pB7_1AAtTP::EPYC1::YFP^C; not shown: YFP^C half of split YFP (primer name YFPc155)
Turning to B2, in assay [2], the binding result is recorded as “no binding”.

B3: EPYC1::YFP^N (EPYC1 fused at the C-terminus to YFP^N, with 1AAt transit peptide) (other)
chain: B2 chain
notes: Expressed transiently in N. benthamiana with the 1AAt transit peptide at the N-terminus; processing in the plant not determined; also called pB7_1AAtTP::EPYC1::YFP^N; not shown: YFP^N half of split YFP (primer name YFPn173)
Take B3: in assay [3], the binding result is “no binding”.

B4: synthetic EPYC1 1 rep (first repeat region of EPYC1, one copy) (other)
chain: VSPTRSVLPANWRQELESLRNGNGSSSAASSAPAPARSSSASWRDAAPASSAPARSSSASKKA
notes: also called native 1 rep variant; EPYC1 1 rep (wildtype)
As for B4, in assay [4], the binding result is given as “binds”.

B5: synthetic EPYC1 α-helix knockout A (first repeat region with a point mutation in the α-helix) (designed binder)
chain: B4 chain with L19R
notes: also called pGBKT7_synthEPYC1 α-helix knockout 1 (probably)
Turning to B5, the binding result in assay [4] was “no binding”.

B6: synthetic EPYC1 α-helix knockout B (first repeat region with a point mutation in the α-helix) (designed binder)
chain: B4 chain with E15W
notes: also called pGBKT7_synthEPYC1 α-helix knockout 2 (probably)
For B6, the binding result in assay [4] is given as “no binding”.

B7: synthetic EPYC1 modified α-helix 1 rep (first repeat region with a G-Q substitution near the α-helix) (designed binder)
chain: B4 chain with G22Q
notes: also called pGBKT7_synthEPYC1 modified α-helix 1rep
As for B7, in assay [4], the binding result is recorded as “binds”.

B8: EPYC1 N-terminus (N-ter) (other)
chain: MATISSMRVGAASRVVVSGRVKTVKVAARGSWRESSTATVQASRASSATNR
notes: also called pGBKT7_N-ter EPYC1
Regarding B8, the binding result in assay [1] is “no binding”.

B9: EPYC1 N-terminus, first and second repeat regions (N-ter+2reps) (other)
chain: MATISSMRVGAASRVVVSGRVKTVKVAARGSWRESSTATVQASRASSATNRVSPTRSVLPANWRQELESLRNGNGSSSAASSAPAPARSSSASWRDAAPASSAPARSSSASKKAVTPSRSALPSNWKQELESLRSSSPAPASSAPAPARSSSASWRDAAPASSAPARSSSSKKA
notes: also called pGBKT7_N-ter + 2reps EPYC1
Take B9: the binding result in assay [1] is “binds”.

B10: EPYC1 N-terminus plus first repeat region (N-ter+1rep) (other)
chain: MATISSMRVGAASRVVVSGRVKTVKVAARGSWRESSTATVQASRASSATNRVSPTRSVLPANWRQELESLRNGNGSSSAASSAPAPARSSSASWRDAAPASSAPARSSSASKKA
notes: also called pGBKT7_N-ter + 1rep EPYC1
Regarding B10, in assay [1], the binding result is listed as “binds”.

B11: synthetic EPYC1 4 reps (four tandem copies of the first repeat region) (designed binder)
chain: VSPTRSVLPANWRQELESLRNGNGSSSAASSAPAPARSSSASWRDAAPASSAPARSSSASKKAVSPTRSVLPANWRQELESLRNGNGSSSAASSAPAPARSSSASWRDAAPASSAPARSSSASKKAVSPTRSVLPANWRQELESLRNGNGSSSAASSAPAPARSSSASWRDAAPASSAPARSSSASKKAVSPTRSVLPANWRQELESLRNGNGSSSAASSAPAPARSSSASWRDAAPASSAPARSSSASKKA
notes: also called pGBKT7_synthEPYC1 4reps
Consider B11, for which the binding result in assay [5] and in assay [4] was “binds” each time.

B12: AtCP12::YFP^N (A. thaliana CP12 fused at the C-terminus to YFP^N) (other)
chain: AAPEGGISDVVEKSIKEAQETCAGDPVSGECVAAWDEVEELSAAASHARDKKKADGSDPLEEYCKDNPETNECRTYDN
notes: Negative control of the BiFC assay; also called pICH47732_CP12At::YFP^N; not shown: YFP^N half of split YFP
Turning to B12, the binding result in assay [6] is “no binding”.

B13: synthetic EPYC1 2 α-helices 1 rep (first repeat region with an additional α-helix inserted) (designed binder)
chain: VSPTRSVLPANWRQELESLRNNWRQELESLRNGNGSSSAASSAPAPARSSSASWRDAAPASSAPARSSSASKKA
notes: also called pGBKT7_synthEPYC1 2α-helices 1rep
Turning to B13, in assay [4], the binding result is recorded as “no binding”.

B14: EPYC1 N-terminus, first to third repeat regions (N-ter+3reps) (other)
chain: MATISSMRVGAASRVVVSGRVKTVKVAARGSWRESSTATVQASRASSATNRVSPTRSVLPANWRQELESLRNGNGSSSAASSAPAPARSSSASWRDAAPASSAPARSSSASKKAVTPSRSALPSNWKQELESLRSSSPAPASSAPAPARSSSASWRDAAPASSAPARSSSSKKAVTPSRSALPSNWKQELESLRSSSPAPASSAPAPARSSSASWRDAAPASSAPARSSSASKKA
notes: also called pGBKT7_N-ter + 3reps EPYC1
Turning to B14, the binding result in assay [1] is recorded as “binds”.

B15: EPYC1 C-terminus (C-ter) (peptide)
chain: GTNPWTGKSKPEIKRTALPADWRKGL
notes: also called C-terminal tail; pGBKT7_C-ter EPYC1
As for B15, the binding result in assay [1] was “binds”.
